{
  "source": "patent EP3639857B1",
  "about": "“ERYTHROPOIETIN COMPOSITION WITH IMPROVED STABILITY AND METHOD FOR PREPARING SAME” (Hankook Korus Pharmaceutical Co. Ltd., priority 2017, dated 2018)",
  "key": {"[1]": {"experiment": "Pharmacokinetics in rat after intravenous administration, erythropoietin in blood by ELISA, non-compartmental analysis", "assay_type": "in vivo", "settings": "SD rats", "method": "Pharmacokinetics were measured by a method of intravenously administrating PEG-EPO conjugates to SD rats (male, 7 weeks old, body weight of 243.53±14.33 g). Specifically, after the administration of 3 µg/kg of EPO, PEG-EPO-TS, or PEG-EPO-Mircera, after 0, 0.5, 1, 2, 4, 8, 24 (1 d), 48 (2 d), 96 (4 d), and 168 ([…]) hours, blood was collected from the rats with an SST tube, centrifuged at 6,000 rpm for 10 minutes at 4°C, and stored at -80°C until the concentration measurement. The concentration of erythropoietin in the blood was measured by ELISA.\nThe pharmacokinetic analysis of the measured concentration results was performed by non-compartmental analysis (NCA), and the analysis was performed with the program of Phoenix WinNonlin 7.0 (Certara USA Inc., Princeton, NJ, USA). Individual NCA parameters were calculated."}, "B6D2F1 mice": {"test_system": "B6D2F1 mice", "experiment": "Pharmacodynamics in mice after intraperitoneal administration, CBC test", "assay_type": "in vivo", "settings": "for RBC Increase (%) / Reticulocyte (×10^9/L) Increase (%): 7d vs 0d", "method": "Pharmacodynamics were measured by a method of intraperitoneally administrating the PEG-EPO conjugates to B6D2F1 mice (female, 7 weeks old, body weight of 20.02±0.88 g). Specifically, 1.25, 2.5, 5, or 20 µg/kg of EPO, PEG-EPO-TS, or PEG-EPO-Mircera drugs were administered, after 7 days, 200 to 300 µl of the blood was collected from the facial vein by using a lancet into a micro EDTA tube (MiniCollect, Greiner Bio One International GmbH), the shaker was used to sufficiently mix the EDTA to prevent coagulation, and then, the CBC test was performed by using the ADVIA 2120i (Siemens AG) equipment within one hour. The results are shown in Table 10 below with the comparison of CBC results before drug administration."}, "[2]": {"settings": "i.p. 20 µg/kg, 0d (before drug administration)"}},
  "data": [
    {"substance": "PEG-EPO-Mircera: commercially available pegylated EPO (Mircera, Roche Korea Co., Ltd.), comparative group [reference compound]", "values": [
      {"measurement": "concentration of erythropoietin in the blood 0 h", "setting": "[1]; IV 3 µg/kg, 0 h", "value": 0},
      {"measurement": "concentration of erythropoietin in the blood 0.5 h", "setting": "[1]; IV 3 µg/kg, 0.5 h", "value": 8.7},
      {"measurement": "concentration of erythropoietin in the blood 1h", "setting": "[1]; IV 3 µg/kg, 1 h", "value": 7.6},
      {"measurement": "concentration of erythropoietin in the blood 2h", "setting": "[1]; IV 3 µg/kg, 2 h", "value": 6.3},
      {"measurement": "concentration of erythropoietin in the blood 4h", "setting": "[1]; IV 3 µg/kg, 4 h", "value": 6.8},
      {"measurement": "concentration of erythropoietin in the blood 8h", "setting": "[1]; IV 3 µg/kg, 8 h", "value": 4.9},
      {"measurement": "concentration of erythropoietin in the blood 24h", "setting": "[1]; IV 3 µg/kg, 24 h", "value": 3.6},
      {"measurement": "concentration of erythropoietin in the blood 48h", "setting": "[1]; IV 3 µg/kg, 48 h", "value": 2.1},
      {"measurement": "concentration of erythropoietin in the blood 96h", "setting": "[1]; IV 3 µg/kg, 96 h", "value": 0.7},
      {"measurement": "concentration of erythropoietin in the blood 168h", "setting": "[1]; IV 3 µg/kg, 168 h", "value": 0.1},
      {"measurement": "AUCinf", "setting": "[1]; IV 3 µg/kg, NCA, administration to infinity", "value": 288.60, "unit": "ng·h/mL"},
      {"measurement": "AUClast", "setting": "[1]; IV 3 µg/kg, NCA, administration to last measured concentration", "value": 284.59, "unit": "ng·h/mL"},
      {"measurement": "C1", "setting": "[1]; IV 3 µg/kg, NCA, clearance", "value": 1.8707, "unit": "mL/min/kg"},
      {"measurement": "T1/2", "setting": "[1]; IV 3 µg/kg, NCA, half-life", "value": 27.83, "unit": "h"},
      {"measurement": "C0", "setting": "[1]; IV 3 µg/kg, NCA, initial concentration", "value": 9.96, "unit": "ng/mL"},
      {"measurement": "Cmax", "setting": "[1]; IV 3 µg/kg, NCA, maximal concentration", "value": 8.7, "unit": "ng/mL"},
      {"measurement": "MRTlast", "setting": "[1]; IV 3 µg/kg, NCA, mean residence time to last measured concentration", "value": 36.87, "unit": "h"},
      {"measurement": "AUC%Extrap (%)", "setting": "[1]; IV 3 µg/kg, NCA, percentage of extrapolated area", "value": 1.39, "unit": "%"},
      {"measurement": "Tmax", "setting": "[1]; IV 3 µg/kg, NCA, time at maximal concentration", "value": 0.5, "unit": "h"},
      {"measurement": "VZ", "setting": "[1]; IV 3 µg/kg, NCA, volume of distribution", "value": 4.50667, "unit": "L/kg"},
      {"measurement": "Vss", "setting": "[1]; IV 3 µg/kg, NCA, volume of distribution at steady state", "value": 4.40632, "unit": "L/kg"},
      {"measurement": "half-life", "setting": "[1]; IV administration", "value": 27.8, "unit": "h"},
      {"measurement": "Reticulocyte (×10^9/L) 0d", "setting": "B6D2F1 mice; i.p. 1.25 µg/kg, 0d (before drug administration)", "value": "228. 40 ×10^9/L"},
      {"measurement": "Reticulocyte (%) 7d", "setting": "B6D2F1 mice; i.p. 1.25 µg/kg", "value": 4.78, "unit": "%"},
      {"measurement": "RBC Increase (%)", "setting": "B6D2F1 mice; i.p. 1.25 µg/kg", "value": 15.03, "unit": "%"},
      {"measurement": "Reticulocyte (×10^9/L) Increase (%)", "setting": "B6D2F1 mice; i.p. 1.25 µg/kg", "value": 98.51, "unit": "%"},
      {"measurement": "Reticulocyte (×10^9/L) 0d", "setting": "B6D2F1 mice; i.p. 2.5 µg/kg, 0d (before drug administration)", "value": "143. 50 ×10^9/L"},
      {"measurement": "RBC(×10^6/µl) 7d", "setting": "B6D2F1 mice; i.p. 2.5 µg/kg", "value": "12. 16 ×10^6/µl"},
      {"measurement": "Reticulocyte (%) 7d", "setting": "B6D2F1 mice; i.p. 2.5 µg/kg", "value": 4.05, "unit": "%"},
      {"measurement": "RBC Increase (%)", "setting": "B6D2F1 mice; i.p. 2.5 µg/kg", "value": 37.25, "unit": "%"},
      {"measurement": "Reticulocyte (×10^9/L) Increase (%)", "setting": "B6D2F1 mice; i.p. 2.5 µg/kg", "value": 242.79, "unit": "%"},
      {"measurement": "Reticulocyte (×10^9/L) 0d", "setting": "B6D2F1 mice; i.p. 5 µg/kg, 0d (before drug administration)", "value": "134. 10 ×10^9/L"},
      {"measurement": "RBC(×10^6/µl) 7d", "setting": "B6D2F1 mice; i.p. 5 µg/kg", "value": "12. 01 ×10^6/µl"},
      {"measurement": "Reticulocyte (×10^9/L) 7d", "setting": "B6D2F1 mice; i.p. 5 µg/kg", "value": "1548. 00 ×10^9/L"},
      {"measurement": "RBC Increase (%)", "setting": "B6D2F1 mice; i.p. 5 µg/kg", "value": 31.26, "unit": "%"},
      {"measurement": "RBC(×10^6/µl) 0d", "setting": "B6D2F1 mice; [2]", "value": "10. 43 ×10^6/µl"},
      {"measurement": "Reticulocyte (×10^9/L) 0d", "setting": "B6D2F1 mice; [2]", "value": "194. 70 ×10^9/L"},
      {"measurement": "RBC(×10^6/µl) 7d", "setting": "B6D2F1 mice; i.p. 20 µg/kg", "value": "13. 55 ×10^6/µl"},
      {"measurement": "Reticulocyte (×10^9/L) 7d", "setting": "B6D2F1 mice; i.p. 20 µg/kg", "value": "2347. 00 ×10^9/L"},
      {"measurement": "RBC Increase (%)", "setting": "B6D2F1 mice; i.p. 20 µg/kg", "value": 29.91, "unit": "%"}
    ]}
  ]
}
